Consider six molecules from US20210163976A1, “GENETICALLY ALTERED PLANTS EXPRESSING HETEROLOGOUS RECEPTORS THAT RECOGNIZE LIPO-CHITOOLIGOSACCHARIDES” (Aarhus Universitet, priority 2018, published 2021).

B1: wild type Nfp gene: wild type Medicago NFP LysM receptor transgene (SEQ ID NO: 1) (protein)
chain: MSAFFLPSSSHALFLVLMLFFLTNISAQPLYISETNFTCPVDSPPSCETYVAYRAQSPNFLSLSNISDIFNLSPLRIAKASNIEAEDKKLIPDQLLLVPVTCGCTKNHSFANITYSIKQGDNFFILSITSYQNLTNYLEFKNFNPNLSPTLLPLDTKVSVPLFCKCPSKNQLNKGIKYLITYVWQDNDNVTLVSSKFGASQVEMLAENNHNFTASTNRSVLIPVTSLPKLDQPSSNGRKSSSQNLALIIGISLGSAFFILVLTLSLVYVYCLKMKRLNRSTSSSETADKLLSGVSGYVSKPTMYEIDAIMEGTTNLSDNCKIGESVYKANIDGRVLAVKKIKKDASEELKILQKVNHGNLVKLMGVSSDNDGNCFLVYEYAENGSLEEWLFSESSKTSNSVVSLTWSQRITIAMDVAIGLQYMHEHTYPRIIHRDITTSNILLGSNFKAKIANFGMARTSTNSMMPKIDVFAFGVVLIELLTGKKAMTTKENGEVVILWKDFWKIFDLEGNREERLRKWMDPKLESFYPIDNALSLASLAVNCTADKSLSRPTIAEIVLCLSLLNQPSSEPMLERSLTSGLDAEATHVVTSVIAR
B2: Q119F: NFP substitution variant outside the hydrophobic patch in LysM2 (protein, UniProt Q0GXS4 28-595, looked up, variant Q119F)
Serine/threonine …: QPLYISETNFTCPVDSPPSCETYVAYRAQSPNFLSLSNISDIFNLSPLRIAKASNIEAEDKKLIPDQLLLVPVTCGCTKNHSFANITYSIKFGDNFFILSITSYQNLTNYLEFKNFNPNLSPTLLPLDTKVSVPLFCKCPSKNQLNKGIKYLITYVWQDNDNVTLVSSKFGASQVEMLAENNHNFTASTNRSVLIPVTSLPKLDQPSSNGRKSSSQNLALIIGISLGSAFFILVLTLSLVYVYCLKMKRLNRSTSSSETADKLLSGVSGYVSKPTMYEIDAIMEGTTNLSDNCKIGESVYKANIDGRVLAVKKIKKDASEELKILQKVNHGNLVKLMGVSSDNDGNCFLVYEYAENGSLEEWLFSESSKTSNSVVSLTWSQRITIAMDVAIGLQYMHEHTYPRIIHRDITTSNILLGSNFKAKIANFGMARTSTNSMMPKIDVFAFGVVLIELLTGKKAMTTKENGEVVILWKDFWKIFDLEGNREERLRKWMDPKLESFYPIDNALSLASLAVNCTADKSLSRPTIAEIVLCLSLLNQPSSEPMLERSLTSGLDAEATHVVTSVIAR
B3: T150H: NFP substitution variant outside the hydrophobic patch in LysM2 (protein, UniProt Q0GXS4 28-595, looked up, variant T150H)
Serine/threonine …: QPLYISETNFTCPVDSPPSCETYVAYRAQSPNFLSLSNISDIFNLSPLRIAKASNIEAEDKKLIPDQLLLVPVTCGCTKNHSFANITYSIKQGDNFFILSITSYQNLTNYLEFKNFNPNLSPHLLPLDTKVSVPLFCKCPSKNQLNKGIKYLITYVWQDNDNVTLVSSKFGASQVEMLAENNHNFTASTNRSVLIPVTSLPKLDQPSSNGRKSSSQNLALIIGISLGSAFFILVLTLSLVYVYCLKMKRLNRSTSSSETADKLLSGVSGYVSKPTMYEIDAIMEGTTNLSDNCKIGESVYKANIDGRVLAVKKIKKDASEELKILQKVNHGNLVKLMGVSSDNDGNCFLVYEYAENGSLEEWLFSESSKTSNSVVSLTWSQRITIAMDVAIGLQYMHEHTYPRIIHRDITTSNILLGSNFKAKIANFGMARTSTNSMMPKIDVFAFGVVLIELLTGKKAMTTKENGEVVILWKDFWKIFDLEGNREERLRKWMDPKLESFYPIDNALSLASLAVNCTADKSLSRPTIAEIVLCLSLLNQPSSEPMLERSLTSGLDAEATHVVTSVIAR
B4: T216F: NFP substitution variant in LysM3 (protein, UniProt Q0GXS4 28-595, looked up, variant T216F)
Serine/threonine …: QPLYISETNFTCPVDSPPSCETYVAYRAQSPNFLSLSNISDIFNLSPLRIAKASNIEAEDKKLIPDQLLLVPVTCGCTKNHSFANITYSIKQGDNFFILSITSYQNLTNYLEFKNFNPNLSPTLLPLDTKVSVPLFCKCPSKNQLNKGIKYLITYVWQDNDNVTLVSSKFGASQVEMLAENNHNFTASFNRSVLIPVTSLPKLDQPSSNGRKSSSQNLALIIGISLGSAFFILVLTLSLVYVYCLKMKRLNRSTSSSETADKLLSGVSGYVSKPTMYEIDAIMEGTTNLSDNCKIGESVYKANIDGRVLAVKKIKKDASEELKILQKVNHGNLVKLMGVSSDNDGNCFLVYEYAENGSLEEWLFSESSKTSNSVVSLTWSQRITIAMDVAIGLQYMHEHTYPRIIHRDITTSNILLGSNFKAKIANFGMARTSTNSMMPKIDVFAFGVVLIELLTGKKAMTTKENGEVVILWKDFWKIFDLEGNREERLRKWMDPKLESFYPIDNALSLASLAVNCTADKSLSRPTIAEIVLCLSLLNQPSSEPMLERSLTSGLDAEATHVVTSVIAR
B5: K141E: NFP substitution variant outside the hydrophobic patch in LysM2 (protein, UniProt Q0GXS4 28-595, looked up, variant K141E)
Serine/threonine …: QPLYISETNFTCPVDSPPSCETYVAYRAQSPNFLSLSNISDIFNLSPLRIAKASNIEAEDKKLIPDQLLLVPVTCGCTKNHSFANITYSIKQGDNFFILSITSYQNLTNYLEFENFNPNLSPTLLPLDTKVSVPLFCKCPSKNQLNKGIKYLITYVWQDNDNVTLVSSKFGASQVEMLAENNHNFTASTNRSVLIPVTSLPKLDQPSSNGRKSSSQNLALIIGISLGSAFFILVLTLSLVYVYCLKMKRLNRSTSSSETADKLLSGVSGYVSKPTMYEIDAIMEGTTNLSDNCKIGESVYKANIDGRVLAVKKIKKDASEELKILQKVNHGNLVKLMGVSSDNDGNCFLVYEYAENGSLEEWLFSESSKTSNSVVSLTWSQRITIAMDVAIGLQYMHEHTYPRIIHRDITTSNILLGSNFKAKIANFGMARTSTNSMMPKIDVFAFGVVLIELLTGKKAMTTKENGEVVILWKDFWKIFDLEGNREERLRKWMDPKLESFYPIDNALSLASLAVNCTADKSLSRPTIAEIVLCLSLLNQPSSEPMLERSLTSGLDAEATHVVTSVIAR
B6: NFP L147D L154D: double-mutated NFP, leucine residues L147 and L154 replaced with aspartate (protein, UniProt Q0GXS4 28-246, looked up, variant L147D L154D)
extracellular domain: QPLYISETNFTCPVDSPPSCETYVAYRAQSPNFLSLSNISDIFNLSPLRIAKASNIEAEDKKLIPDQLLLVPVTCGCTKNHSFANITYSIKQGDNFFILSITSYQNLTNYLEFKNFNPNDSPTLLPDDTKVSVPLFCKCPSKNQLNKGIKYLITYVWQDNDNVTLVSSKFGASQVEMLAENNHNFTASTNRSVLIPVTSLPKLDQPSSNGRKSSSQNLA
modifications: extracellular domain
notes: double-mutated NFP, leucine residues L147 and L154 replaced with aspartate

The test system of the first assay is Medicago nfp mutants. The assay can be described thus: Complementation assay (nodulation) by hairy root transformation. Type of assay: in vivo. As to conditions: 49 days after inoculation with S. meliloti strain 1021, FIG. 6A. An excerpt:
Complementation assay: Construct assembly, plant growth conditions, hairy root transformations, nodulation and ROS assays were generally conducted as described in Bozsoki et al. (2017) (Bozsoki Z, Cheng J, Feng F, Gysel K, Vinther M, Andersen KR, Oldroyd G, Blaise M, Radutoiu S, Stougaard J (2017) Receptor-mediated chitin perception in legume roots is functionally separable from Nod factor perception. Proc Natl Acad Sci 114: E8118-E8127). The tested transgenes were the mutated LysM receptors described in Example 5. In addition, NFP substitution variants replacing residues outside the hydrophobic patch in LysM2 (Q119F, K141E and T150H) or in LysM3 (T216F) were tested.
Consider B1, for which the “nodules per plant (complementation)” value came out at 5 nodules per plant. For the molecule B2, the “nodules per plant (complementation)” value is reported as “did not affect nodulation”. Consider B3, for which the “nodules per plant (complementation)” value was “did not affect nodulation”.

Turning to B4, the “nodules per plant (complementation)” value is “did not affect nodulation”.

For B5, the “nodules per plant (complementation)” value was “did not affect nodulation”. For the molecule B6, the “nodules per plant (complementation)” value is listed as “did not develop any nodules”.

The assay is the same for the next values; noted with them: S. medicae inoculation, 28 dpi, FIG. 6B.
For B6, the “complementation (nodulation)” value is “complements poorly”.
